Results taken from PMC4653032.

Columns and labels:
Details in all cases: glycan lost; control: wild-type CD133
[1] = FLAG IP, PY828 blot, HEK293T with Src
[2] = surface flow cytometry, HEK293T and HepG2
[3] = immunofluorescence with ER dye, HEK293T
[4] = anti-CD133 western blot, HEK293T lysates

B1: CD133 (prominin-1): N548Q (protein)
parent chain: MALVLGSLLLLGLCGNSFSGGQPSSTDAPKAWNYELPATNYETQDSHKAGPIGILFELVHIFLYVVQPRDFPEDTLRKFLQKAYESKIDYDKPETVILGLKIVYYEAGIILCCVLGLLFIILMPLVGYFFCMCRCCNKCGGEMHQRQKENGPFLRKCFAISLLVICIIISIGIFYGFVANHQVRTRIKRSRKLADSNFKDLRTLLNETPEQIKYILAQYNTTKDKAFTDLNSINSVLGGGILDRLRPNIIPVLDEIKSMATAIKETKEALENMNSTLKSLHQQSTQLSSSLTSVKTSLRSSLNDPLCLVHPSSETCNSIRLSLSQLNSNPELRQLPPVDAELDNVNNVLRTDLDGLVQQGYQSLNDIPDRVQRQTTTVVAGIKRVLNSIGSDIDNVTQRLPIQDILSAFSVYVNNTESYIHRNLPTLEEYDSYWWLGGLVICSLLTLIVIFYYLGLLCGVCGYDRHATPTTRGCVSNTGGVFLMVGVGLSFLFCWILMIIVVLTFVFGANVEKLICEPYTSKELFRVLDTPYLLNEDWEYYLSGKLFNKSKMKLTFEQVYSDCKKNRGTYGTLHLQNSFNISEHLNINEHTGSISSELESLKVNLNIFLLGAAGRKNLQDFAACGIDRMNYDSYLAQTGKSPAGVNLLSFAYDLEAKANSLPPGNLRNSLKRDAQTIKTIHQQRVLPIEQSLSTLYQSVKILQRTGNGLLERVTRILASLDFAQNFITNNTSSVIIEETKKYGRTIIGYFEHYLQWIEFSISEKVASCKPVATALDTAVDVFLCSYIIDPLNLFWFGIGKATVFLLPALIFAVKLAKYYRRMDSEDVYDDVETIPMKNMENGNNGYHKDHVYGIHNPVMTSPSQH
no change: other: Y828 phosphorylation [1] | localisation_or_trafficking [2] | localisation_or_trafficking [3] | expression_or_secretion [4]

B2: CD133 (prominin-1): N729Q (protein)
parent chain: B1 parent chain
no change: localisation_or_trafficking [2] | localisation_or_trafficking [3] | expression_or_secretion [4]

B3: CD133 (prominin-1): N730Q (protein)
parent chain: B1 parent chain
no change: localisation_or_trafficking [2] | localisation_or_trafficking [3] | expression_or_secretion [4]
